According to patent US20150086555A1:
Where a chain is given by its changes, count along the chain named.

B1: TCN-553 (5261_C18) (antibody, V domains shown)
VH: QVQVVQSGTEVKKPGSSVKVSCQTSGGRFMSYAITWVRQAPGQGLEWMGGIVPVFGTANYAQKFQGRVTITTDDSTRTAYMELSSLRSEDTAVYYCGFRYGSGYGFDSWGQGTLVTVSS
VL: EIVLTQSPGTLSLSPGERATLSCRASQSVSSSYLAWYQKKPGQAPRLLIYGASTRATGIPDRFTGSGSGTDFTLSISRLEPEDFAVYYCQHFGTSVFTFGGGTKVEIK
B2: TCN-563 (5237_B21) (antibody, V domains shown)
VH: QVQLAQSGAEVKRPGSSVKVSCTASGGIFRKNAISWVRQAPGQGLEWMGGIIAVFNTANYAQKFQGRVKITADESGNTAYMELSSLRSDDTAVYYCASHPKYFYGSGSYPDFWGQGTLVTVSS
VL: QSALTQPRSVSGSPGQSVTISCTGSSSDVGASNSVSWYQQHPGKAPKLVIYDVTERPSGVPHRFSGSKSGNTASLTVSGLQPEDEADYFCCAYGGKYLVVFGGGTKVTVL
B3: TCN-539 (5056_A08) (antibody, V domains shown)
VH: QVQLVESGGGVVQPGRSLRLSCAASEITFITYAMHWVRQAPGKGLEWVALISDDGSNKFYADSVKGRFTISRDNSKNTLYLQMNSLRAEDTAAYYCAREGVYFDSGTYRGYFDYWGQETLVTVSS
VL: EIVLTQSPATLSLSPGERATLSCRASQSVSSYLAWYQQKPGQAPRLLIYDASNRATGIPARFSGSGSGTDFTLTISSLEPEDFAVYYCQQRSHWPPITFGQGTRLEIK
B4: TCN-552 (5249_I23) (antibody, V domains shown)
VH: QVQVVQSGAEVKKPGSSVRVSCQASGGTFMNYAIIWVRRAPGQGLEWMGGIIPVFPTPNYAQMFQGRVTISTDESRSTSFLELTNLRYEDTAVYYCARRIYHGGNSGFDFWGQGTLVTVSS
VL: EIVLTQSPATLSLSPGERATLSCRASQSVGNYLAWYQQKPGQAPRLLIYDSSNRAPGIPARFSGSGSGTDFTLTISSLAPEDFAVYYCQQRSKWPPMYSFGHGTKLEIK
B5: TCN-555 (5246_L16) (antibody, V domains shown)
VH: B2 VH with A5V, G66N, R87T
VL: B2 VL with V18I, S25G, V29I, Y51F, E83D

Biological target: recombinant soluble homotrimeric HA of A/swine/Ontario/01911-2/99 (H4N6) (Influenza A virus A/Swine/Ontario/01911-2/99 (H4N6))
Assay: HA microarray, BCC supernatant
Details: remark: other sources report otherwise

Binder | Trimeric HA Binding: RLU
B1 | 2580 RLU
B2 | 4500 RLU
B3 | 1580 RLU

Biological target: recombinant soluble homotrimeric HA of A/California/4/09 (H1N1) (Influenza A virus A/California/04/2009(H1N1))
Assay: HA microarray, BCC supernatant
Details: remark: other sources report otherwise

Binder | Trimeric HA Binding: RLU
B4 | 35300 RLU
B1 | 20300 RLU
B5 | 44900 RLU
B2 | 45200 RLU

Biological target: recombinant soluble homotrimeric HA of A/Anhui/1/05 (H5N1) (Influenza A virus A/Anhui/1/2005(H5N1))
Assay: HA microarray, BCC supernatant
Details: remark: other sources report otherwise

Binder | Trimeric HA Binding: RLU
B4 | 4160 RLU
B1 | 12600 RLU
B5 | 1500 RLU
B2 | 9580 RLU
B3 | 91 RLU

Biological target: recombinant soluble homotrimeric HA of A/Vietnam/1203/04 (H5N1) (Influenza A virus A/VietNam/1203/2004(H5N1))
Assay: HA microarray, BCC supernatant
Details: remark: other sources report otherwise

Binder | Trimeric HA Binding: RLU
B4 | 2730 RLU
B1 | 6560 RLU
B5 | 876 RLU
B2 | 4840 RLU
B3 | 545 RLU

Biological target: recombinant soluble homotrimeric HA of A/Solomon Islands/3/06 (H1N1) (Influenza A virus A/Solomon Islands/3/2006(H1N1))
Assay: HA microarray, BCC supernatant
Details: remark: other sources report otherwise

Binder | Trimeric HA Binding: RLU
B4 | 39300 RLU
B1 | 16300 RLU
B5 | 26400 RLU
B2 | 30000 RLU
B3 | 239 RLU

Biological target: recombinant soluble homotrimeric HA of A/Wisconsin/67/05 (H3N2) (Influenza A virus A/Wisconsin/67/2005(H3N2))
Assay: HA microarray, BCC supernatant
Details: remark: other sources report otherwise

Binder | Trimeric HA Binding: RLU
B4 | 14800 RLU
B1 | 20000 RLU
B5 | 9800 RLU
B2 | 40800 RLU
B3 | 715 RLU

Biological target: recombinant soluble homotrimeric HA of A/Japan/305/57 (H2N2) (Influenza A virus A/Japan/305/1957(H2N2))
Assay: HA microarray, BCC supernatant
Details: remark: other sources report otherwise

Binder | Trimeric HA Binding: RLU
B4 | 23800 RLU
B1 | 25500 RLU
B5 | 2130 RLU
B2 | 6610 RLU
B3 | 468 RLU

Biological target: recombinant soluble homotrimeric HA of A/Netherlands/219/03 (H7N7) (Influenza A virus A/Netherlands/219/03(H7N7))
Assay: HA microarray, BCC supernatant
Details: remark: other sources report otherwise

Binder | Trimeric HA Binding: RLU
B4 | 1240 RLU
B1 | 1840 RLU
B5 | 3400 RLU
B2 | 7520 RLU
B3 | 1700 RLU

Biological target: recombinant soluble homotrimeric HA of A/Indonesia/5/05 (H5N1) (Influenza A virus A/Indonesia/5/2005(H5N1))
Assay: HA microarray, BCC supernatant
Details: remark: other sources report otherwise

Binder | Trimeric HA Binding: RLU
B4 | 43600 RLU
B1 | 24400 RLU
B5 | 34500 RLU
B2 | 39500 RLU

Biological target: recombinant soluble homotrimeric HA of A/chicken/Vietnam/NCVD-016/08 (H5N1) (Influenza A virus A/chicken/Vietnam/NCVD-016/2008(H5N1))
Assay: HA microarray, BCC supernatant
Details: remark: other sources report otherwise

Binder | Trimeric HA Binding: RLU
B4 | 46200 RLU
B1 | 24200 RLU
B5 | 22300 RLU
B2 | 41000 RLU
B3 | 100 RLU

Biological target: recombinant soluble homotrimeric HA of A/duck/Yangzhou/02/05 (H8N4) (Influenza A virus A/duck/Yangzhou/02/2005(H8N4))
Assay: HA microarray, BCC supernatant
Details: remark: other sources report otherwise

Binder | Trimeric HA Binding: RLU
B4 | 13100 RLU
B1 | 28000 RLU
B5 | 18400 RLU
B2 | 46700 RLU

Biological target: recombinant soluble homotrimeric HA of A/northern shoveler/California/HKWF115/07 (H6) (Influenza A virus A/northern shoveler/California/HKWF115/2007(H6N1))
Assay: HA microarray, BCC supernatant
Details: remark: other sources report otherwise

Binder | Trimeric HA Binding: RLU
B4 | 38400 RLU
B1 | 21700 RLU
B5 | 49500 RLU
B2 | 27300 RLU
B3 | 814 RLU

Biological target: recombinant homotrimeric HA A/Japan/305/57 H2N2 (Influenza A virus A/Japan/305/1957(H2N2))
Assay: protein microarray, purified IgG, trimeric HA
Details: remark: other sources report otherwise

Binder | Trimeric HA Binding: RLU
B4 | 24700 RLU
B1 | 25700 RLU
B5 | 10700 RLU
B3 | 544 RLU

Biological target: recombinant homotrimeric HA A/South Carolina/1/18 H1N1 (Influenza A virus A/South Carolina/1/18 (H1N1))
Assay: protein microarray, purified IgG, trimeric HA
Details: remark: other sources report otherwise

Binder | Trimeric HA Binding: RLU
B4 | 14200 RLU
B1 | 20600 RLU
B5 | 13700 RLU
B3 | 60 RLU

Biological target: recombinant homotrimeric HA A/northern shoveler/California/HKWF115/07 H6N4 (Influenza A virus A/northern shoveler/California/HKWF115/2007(H6N1))
Assay: protein microarray, purified IgG, trimeric HA
Details: remark: other sources report otherwise

Binder | Trimeric HA Binding: RLU
B4 | 8970 RLU
B1 | 20200 RLU
B5 | 15600 RLU
B3 | 124 RLU

Biological target: recombinant homotrimeric HA A/Hong Kong/2108/03 H9N2 (Influenza A virus A/HK/2108/2003(H9N2))
Assay: protein microarray, purified IgG, trimeric HA
Details: remark: other sources report otherwise

Binder | Trimeric HA Binding: RLU
B4 | 161 RLU
B1 | 172 RLU
B5 | 302 RLU
B3 | 140 RLU

Biological target: recombinant homotrimeric HA A/Indonesia/5/05 H5N1 (Influenza A virus A/Indonesia/5/2005(H5N1))
Assay: protein microarray, purified IgG, trimeric HA
Details: remark: other sources report otherwise

Binder | Trimeric HA Binding: RLU
B4 | 23600 RLU
B1 | 26000 RLU
B5 | 15600 RLU

Biological target: recombinant homotrimeric HA A/chicken/Vietnam/NCVD-016/08 H5N1 (Influenza A virus A/chicken/Vietnam/NCVD-016/2008(H5N1))
Assay: protein microarray, purified IgG, trimeric HA
Details: remark: other sources report otherwise

Binder | Trimeric HA Binding: RLU
B4 | 4300 RLU
B1 | 12400 RLU
B5 | 4420 RLU
B3 | 144 RLU

Biological target: recombinant homotrimeric HA A/California/4/09 H1N1 (Influenza A virus A/California/04/2009(H1N1))
Assay: protein microarray, purified IgG, trimeric HA
Details: remark: other sources report otherwise

Binder | Trimeric HA Binding: RLU
B4 | 23900 RLU
B1 | 25100 RLU
B5 | 25500 RLU
B3 | 129 RLU

Biological target: recombinant homotrimeric HA A/Egypt/3300-NAMRU3/08 H5N1 (Influenza A virus A/Egypt/3300-NAMRU3/2008(H5N1))
Assay: protein microarray, purified IgG, trimeric HA
Details: remark: other sources report otherwise

Binder | Trimeric HA Binding: RLU
B4 | 20300 RLU
B1 | 24600 RLU
B5 | 20200 RLU

Biological target: recombinant homotrimeric HA A/Anhui/1/05 H5N1 (Influenza A virus A/Anhui/1/2005(H5N1))
Assay: protein microarray, purified IgG, trimeric HA
Details: remark: other sources report otherwise

Binder | Trimeric HA Binding: RLU
B4 | 4520 RLU
B1 | 9030 RLU
B5 | 6630 RLU
B3 | 570 RLU

Biological target: recombinant homotrimeric HA A/Wisconsin/67/05 H3N2 (Influenza A virus A/Wisconsin/67/2005(H3N2))
Assay: protein microarray, purified IgG, trimeric HA
Details: remark: other sources report otherwise

Binder | Trimeric HA Binding: RLU
B4 | 123 RLU
B1 | 197 RLU
B5 | 369 RLU
B3 | 8850 RLU

Biological target: recombinant homotrimeric HA A/Solomon Islands/3/06 H1N1 (Influenza A virus A/Solomon Islands/3/2006(H1N1))
Assay: protein microarray, purified IgG, trimeric HA
Details: remark: other sources report otherwise

Binder | Trimeric HA Binding: RLU
B4 | 19400 RLU
B1 | 24600 RLU
B5 | 17900 RLU
B3 | 1060 RLU

Biological target: recombinant homotrimeric HA A/Netherlands/219/03 H7N7 (Influenza A virus A/Netherlands/219/03(H7N7))
Assay: protein microarray, purified IgG, trimeric HA
Details: remark: other sources report otherwise

Binder | Trimeric HA Binding: RLU
B4 | 470 RLU
B1 | 499 RLU
B5 | 1330 RLU
B3 | 161 RLU

Biological target: recombinant homotrimeric HA A/Vietnam/1203/04 H5N1 (Influenza A virus A/VietNam/1203/2004(H5N1))
Assay: protein microarray, purified IgG, trimeric HA
Details: remark: other sources report otherwise

Binder | Trimeric HA Binding: RLU
B4 | 27000 RLU
B1 | 27200 RLU
B5 | 26500 RLU
B3 | 636 RLU

Biological target: recombinant homotrimeric HA A/Hong Kong/156/97 H5N1 (Influenza A virus A/Hong Kong/156/97 (H5N1))
Assay: protein microarray, purified IgG, trimeric HA
Details: remark: other sources report otherwise

Binder | Trimeric HA Binding: RLU
B4 | 16200 RLU
B1 | 24000 RLU
B5 | 13100 RLU
B3 | 103 RLU

Biological target: recombinant homotrimeric HA A/Hong Kong/1073/99 H9N2 (Influenza A virus A/Hong Kong/1073/99 (H9N2))
Assay: protein microarray, purified IgG, trimeric HA
Details: remark: other sources report otherwise

Binder | Trimeric HA Binding: RLU
B1 | 6690 RLU
B5 | 3440 RLU
B3 | 416 RLU
